# Measurements reported in publication PMC8101287, “Molecular characterization of HLA class II binding to the LAG‐3 T cell co‐inhibitory receptor” (European Journal of Immunology, 2020).
# B1: LAG‐3:Fc fusion protein (four extracellular domains of LAG‐3 and the Fc domain of IgG) (Fc fusion)
# chain: LQPGAEVPVVWAQEGAPAQLPCSPTIPLQDLSLLRRAGVTWQHQPDSGPPAAAPGHPLAPGPHPAAPSSWGPRPRRYTVLSVGPGGLRSGRLPLQPRVQLDERGRQRGDFSLWLRPARRADAGEYRAAVHLRDRALSCRLRLRLGQASMTASPPGSLRASDWVILNCSFSRPDRPASVHWFRNRGQGRVPVRESPHHHLAESFLFLPQVSPMDSGPWGCILTYRDGFNVSIMYNLTVLGLEPPTPLTVYAGAGSRVGLPCRLPAGVGTRSFLTAKWTPPGGGPDLLVTGDNGDFTLRLEDVSQAQAGTYTCHIHLQEQQLNATVTLAIITVTPKSFGSPGSLGKLLCEVTPVSGQERFVWSSLDTPSQRSFSGPWLEAQEAQLLSQPWQCQLYQGERLLGAAVYFTELSSPGAQRSGRAPGALPAGHL
# Target: HLA‐DR1 (HLA‐DRA1*01:01/HLA‐DRB*01:01) complexed with the HA_(306‐318) peptide, refolded from E. coli (human | )
# Experiment: SPR
# Conditions: both partners purified
binder,measurement,value
B1,Kd,13.1 µM
